Source: patent US20250320292A1 (PANDION OPERATIONS, published 2025)

Assays:
Mouse Robo2 [1] = molecular target: T1, Mouse Robo2 (mouse, UniProt Q7TPD3 22-863, limits assumed); test: BLI (Octet RED96); test article captured on biosensor (method names CDAB5 on anti-human Fc, result names CDAB6), mouse Robo2 titrated from 50 nM
T1 construct: also called mRobo2
T1 sequence: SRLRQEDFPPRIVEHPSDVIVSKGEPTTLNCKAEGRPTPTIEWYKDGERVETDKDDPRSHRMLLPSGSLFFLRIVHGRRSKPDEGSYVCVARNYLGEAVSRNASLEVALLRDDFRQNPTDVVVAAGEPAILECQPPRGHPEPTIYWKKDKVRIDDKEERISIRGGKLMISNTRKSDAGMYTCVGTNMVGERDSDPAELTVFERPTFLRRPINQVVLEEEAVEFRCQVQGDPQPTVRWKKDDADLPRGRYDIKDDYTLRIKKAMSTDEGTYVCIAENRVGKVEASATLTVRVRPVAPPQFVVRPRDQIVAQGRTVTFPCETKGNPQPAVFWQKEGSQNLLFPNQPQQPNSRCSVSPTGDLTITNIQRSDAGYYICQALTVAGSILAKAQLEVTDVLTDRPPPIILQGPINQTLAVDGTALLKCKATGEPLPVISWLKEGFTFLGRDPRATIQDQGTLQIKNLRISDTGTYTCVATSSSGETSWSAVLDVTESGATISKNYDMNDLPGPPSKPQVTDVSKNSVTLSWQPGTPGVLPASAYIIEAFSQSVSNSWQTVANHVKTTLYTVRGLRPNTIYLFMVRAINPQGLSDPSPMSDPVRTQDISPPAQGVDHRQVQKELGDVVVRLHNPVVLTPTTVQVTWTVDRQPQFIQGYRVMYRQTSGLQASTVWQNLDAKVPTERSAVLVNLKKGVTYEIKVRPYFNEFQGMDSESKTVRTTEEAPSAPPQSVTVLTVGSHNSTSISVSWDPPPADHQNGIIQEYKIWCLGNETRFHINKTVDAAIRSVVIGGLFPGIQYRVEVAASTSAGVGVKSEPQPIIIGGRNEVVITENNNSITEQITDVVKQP
Protocol: (§1) Anti-human Fc (for CDAB1, CDAB5, Fc-rat COL4A3) or anti-Streptavidin (for CDAB3) or HIS1K (COL4A3-His) biosensors were equilibrated in assay buffer (1% BSA in 1×PBS with 0.05% Tween-20) for 10 minutes before the experiment was setup. Immobilizing reagents were diluted to 4 μg/mL in assay buffer and 200 μL pipetted to 96 well plate. Mouse Robo2 or TAs were titrated down, two-fold dilutions (starting at 50 nM as the highest concentration, 7-point dilution). The experiment was conducted using data acquisition software version 10.0 for OCTET96 RED. Test articles were captured using anti-human Fc biosensors for 180 s. Biosensors loaded with test articles were then equilibrated in assay buffer for 120 s. Association was performed in wells with mRobo2 or TA for 180 seconds. Dissociation was performed in wells with assay buffer for 180 s.

Mouse Robo2 [2] = molecular target: T1, Mouse Robo2; test: BLI (Octet RED96); CDAB3 on anti-Streptavidin biosensor, mouse Robo2 titrated two-fold from 50 nM
Protocol: as §1

Mouse Robo2 [3] = molecular target: T1, Mouse Robo2; test: BLI (Octet RED96); CDAB1 captured on anti-human Fc biosensor, mouse Robo2 titrated two-fold from 50 nM
Protocol: as §1

recROBO2 = test: cell-based or functional assay
Sequence of recROBO2 (Q9HCK4 whole entry): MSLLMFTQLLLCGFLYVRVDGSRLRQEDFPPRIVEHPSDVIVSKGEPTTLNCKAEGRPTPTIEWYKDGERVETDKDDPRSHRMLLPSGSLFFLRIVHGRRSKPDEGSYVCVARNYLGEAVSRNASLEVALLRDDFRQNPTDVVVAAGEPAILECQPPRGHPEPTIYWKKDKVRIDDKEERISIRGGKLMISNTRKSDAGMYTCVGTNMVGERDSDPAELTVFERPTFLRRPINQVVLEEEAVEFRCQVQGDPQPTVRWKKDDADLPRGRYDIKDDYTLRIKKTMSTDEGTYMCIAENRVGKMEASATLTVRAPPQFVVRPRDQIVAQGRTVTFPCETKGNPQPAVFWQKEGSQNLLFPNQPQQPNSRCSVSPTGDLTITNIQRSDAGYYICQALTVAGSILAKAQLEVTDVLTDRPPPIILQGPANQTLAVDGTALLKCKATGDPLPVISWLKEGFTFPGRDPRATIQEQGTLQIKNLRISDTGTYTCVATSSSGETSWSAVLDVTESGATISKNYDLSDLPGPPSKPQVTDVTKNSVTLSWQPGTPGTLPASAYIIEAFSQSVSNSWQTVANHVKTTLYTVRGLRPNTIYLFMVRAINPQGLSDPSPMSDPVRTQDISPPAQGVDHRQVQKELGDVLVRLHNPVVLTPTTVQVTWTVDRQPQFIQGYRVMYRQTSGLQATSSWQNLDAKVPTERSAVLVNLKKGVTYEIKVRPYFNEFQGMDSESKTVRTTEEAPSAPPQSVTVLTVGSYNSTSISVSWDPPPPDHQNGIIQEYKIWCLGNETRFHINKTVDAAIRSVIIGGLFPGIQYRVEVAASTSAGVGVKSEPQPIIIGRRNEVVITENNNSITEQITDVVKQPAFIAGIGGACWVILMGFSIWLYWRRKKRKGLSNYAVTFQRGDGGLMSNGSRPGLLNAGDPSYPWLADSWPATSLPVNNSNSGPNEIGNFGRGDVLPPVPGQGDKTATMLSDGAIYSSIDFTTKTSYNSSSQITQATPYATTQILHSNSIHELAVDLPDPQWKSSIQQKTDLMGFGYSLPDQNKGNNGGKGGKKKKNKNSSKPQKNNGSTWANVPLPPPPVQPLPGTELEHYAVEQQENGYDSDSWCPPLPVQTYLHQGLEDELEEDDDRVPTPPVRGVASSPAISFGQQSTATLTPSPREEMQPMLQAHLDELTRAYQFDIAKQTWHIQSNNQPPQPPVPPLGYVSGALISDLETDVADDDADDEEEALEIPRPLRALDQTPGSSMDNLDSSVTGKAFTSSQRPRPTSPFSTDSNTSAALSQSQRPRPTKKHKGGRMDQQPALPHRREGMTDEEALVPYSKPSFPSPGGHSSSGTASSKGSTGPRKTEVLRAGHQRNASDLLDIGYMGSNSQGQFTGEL

B1: CDAB6 (Fc fusion)
chain: DCGPPPDIPNARPILGRHSKFAEQSKVAYSCNNGFKQVPDKSNIVVCLENGQWSSHETFCEKSCVAPERLSFASLKKEYLNMNFFPVGTIVEYECRPGFRKQPPLPGKATCLEDLVWSPVAQFCKKKSCPNPKDLDNGHINIPTGILFGSEINFSCNPGYRLVGVSSTFCSVTGNTVDWDDEFPVCTEIHCPEPPKINNGIMRGESDSYTYSQVVTYSCDKGFILVGNASIYCTVSKSDVGQWSSPPPRCIEKSKVPTKKPTINVPSTGTPSTPQKPTTESVPNPGDQPTPQKPSTVKVSATQHVPVTKTTVRHPIRTSTDKGEPNTGGGGGSGGGGSGGGGSGGGGSDKTHTCPPCPAPEAAGAPSVFLFPPKPKDTLMISRTPEVTCVVVDVSHEDPEVKFNWYVDGVEVHNAKTKPREEQYNSTYRVVSVLTVLHQDWLNGKEYKCKVSNKALPAPIEKTISKAKGQPREPQVYTLPPSREEMTKNQVSLTCLVKGFYPSDIAVEWESNGQPENNYKTTPPVLDSDGSFFLYSKLTVDKSRWQQGNVFSCSVMHEALHNHYTQKSLSLSPGGGGGSGGGGSGGGGSGGGGSEVQLVQSGAEVKKPGASVKVSCKASGYTFTGYYMHWVRQAPGQGLEWMGWINPKNGDTEFPQKFQGRVTMTRDTSITTAYMDLSRLRSDDTAVYYCARESGDDAFDIWGQGTMVTVSSGGGGGSGGGGSGGGGSDIVMTQSPSSLSASVGDRVTITCRASQSISSYLNWYQQKPGKAPKLLIYAASSLQSGVPSRFSGSGSGTDFTLTISSLQPEDFATYYCQQSVGLFFGGGTKVEIK
notes: Same V domains as CDAB1
Binder B1 has a Kd (Mouse Robo2 [1]) of 7.13 nM, a koff (Mouse Robo2 [1]) of 0.00294 s⁻¹ and a kon (Mouse Robo2 [1]) of 412000 M⁻¹ s⁻¹.

B2: CDAB3 (scFv)
chain: DCGPPPDIPNARPILGRHSKFAEQSKVAYSCNNGFKQVPDKSNIVVCLENGQWSSHETFCEKSCVAPERLSFASLKKEYLNMNFFPVGTIVEYECRPGFRKQPPLPGKATCLEDLVWSPVAQFCKKKSCPNPKDLDNGHINIPTGILFGSEINFSCNPGYRLVGVSSTFCSVTGNTVDWDDEFPVCTEIHCPEPPKINNGIMRGESDSYTYSQVVTYSCDKGFILVGNASIYCTVSKSDVGQWSSPPPRCIEKSKVPTKKPTINVPSTGTPSTPQKPTTESVPNPGDQPTPQKPSTVKVSATQHVPVTKTTVRHPIRTSTDKGEPNTGGGGGSGGGGSGGGGSGGGGSEVQLVQSGAEVKKPGASVKVSCKASGYTFTGYYMHWVRQAPGQGLEWMGWINPKNGDTEFPQKFQGRVTMTRDTSITTAYMDLSRLRSDDTAVYYCARESGDDAFDIWGQGTMVTVSSGGGGGSGGGGSGGGGSDIVMTQSPSSLSASVGDRVTITCRASQSISSYLNWYQQKPGKAPKLLIYAASSLQSGVPSRFSGSGSGTDFTLTISSLQPEDFATYYCQQSVGLFFGGGTKVEIKHHHHHH
notes: Fc-less construct with the same V domains as CDAB1; It was loaded on 'anti-Streptavidin' biosensors, and no biotinylation is described
For B2, the Kd (Mouse Robo2 [2]) was 13.2 nM, the koff (Mouse Robo2 [2]) was 0.00291 s⁻¹ and the kon (Mouse Robo2 [2]) was 221000 M⁻¹ s⁻¹.

B3: CDAB1 (antibody, human IgG1, kappa)
heavy: EVQLVQSGAEVKKPGASVKVSCKASGYTFTGYYMHWVRQAPGQGLEWMGWINPKNGDTEFPQKFQGRVTMTRDTSITTAYMDLSRLRSDDTAVYYCARESGDDAFDIWGQGTMVTVSSASTKGPSVFPLAPSSKSTSGGTAALGCLVKDYFPEPVTVSWNSGALTSGVHTFPAVLQSSGLYSLSSVVTVPSSSLGTQTYICNVNHKPSNTKVDKKVEPKSCDKTHTCPPCPAPEAAGAPSVFLFPPKPKDTLMISRTPEVTCVVVDVSHEDPEVKFNWYVDGVEVHNAKTKPREEQYNSTYRVVSVLTVLHQDWLNGKEYKCKVSNKALPAPIEKTISKAKGQPREPQVYTLPPSREEMTKNQVSLTCLVKGFYPSDIAVEWESNGQPENNYKTTPPVLDSDGSFFLYSKLTVDKSRWQQGNVFSCSVMHEALHNHYTQKSLSLSPGGGGGSDCGPPPDIPNARPILGRHSKFAEQSKVAYSCNNGFKQVPDKSNIVVCLENGQWSSHETFCEKSCVAPERLSFASLKKEYLNMNFFPVGTIVEYECRPGFRKQPPLPGKATCLEDLVWSPVAQFCKKKSCPNPKDLDNGHINIPTGILFGSEINFSCNPGYRLVGVSSTFCSVTGNTVDWDDEFPVCTEIHCPEPPKINNGIMRGESDSYTYSQVVTYSCDKGFILVGNASIYCTVSKSDVGQWSSPPPRCIEKSKVPTKKPTINVPSTGTPSTPQKPTTESVPNPGDQPTPQKPSTVKVSATQHVPVTKTTVRHPIRTSTDKGEPNTG
light: DIVMTQSPSSLSASVGDRVTITCRASQSISSYLNWYQQKPGKAPKLLIYAASSLQSGVPSRFSGSGSGTDFTLTISSLQPEDFATYYCQQSVGLFFGGGTKVEIKRTVAAPSVFIFPPSDEQLKSGTASVVCLLNNFYPREAKVQWKVDNALQSGNSQESVTEQDSKDSTYSLSSTLTLSKADYEKHKVYACEVTHQGLSSPVTKSFNRGEC
notes: Anti-ROBO2 tether in IgG1 format with mouse CD55 ECD fused to the C-terminus of the heavy chain; also called CDAB1-HC; CDAB1-LC
In the case of B3, the Kd (Mouse Robo2 [3]) is reported as 1.38 nM, the koff (Mouse Robo2 [3]) is reported as 0.00129 s⁻¹ and the kon (Mouse Robo2 [3]) is reported as 938000 M⁻¹ s⁻¹. The “tethered IC50(nM), inhibition of C5b-9a deposition (Hycult classical complement mouse assay, tethered format)” value (recROBO2) was 1.5 nM.
